Assay results reported in PMC8960830.

Tests used:
[1] = test system: S9.6 Fab WT, PDB:7TQB_1+PDB:7TQB_2; test: fluorescence polarization; conditions: FP: 25 mM Tris-HCl pH 7.5, 50 mM NaCl, 2 mM MgCl2, 21 C, ~5 nM FAM duplex, ITC same buffer at 25 C, SEC-MALS 150 mM NaCl
[2] = test system: S9.6 Fab WT, PDB:7TQB_1+PDB:7TQB_2; test: fluorescence polarization; conditions: FP: 25 mM Tris-HCl pH 7.5, 50 mM NaCl, 2 mM MgCl2, 21 C, ~5 nM FAM duplex, ITC same buffer at 25 C, SEC-MALS 150 mM NaCl; remark: listed apart in the source
[3] = test system: S9.6 Fab HC_S31G, PDB:7TQB_1+PDB:7TQB_2; test: fluorescence polarization; conditions: FP: 25 mM Tris-HCl pH 7.5, 50 mM NaCl, 2 mM MgCl2, 21 C, ~5 nM FAM duplex; ITC same buffer at 25 C; SEC-MALS 150 mM NaCl
[4] = test system: S9.6 Fab HC_Y54Q, PDB:7TQB_1+PDB:7TQB_2; test: fluorescence polarization; conditions: FP: 25 mM Tris-HCl pH 7.5, 50 mM NaCl, 2 mM MgCl2, 21 C, ~5 nM FAM duplex; ITC same buffer at 25 C; SEC-MALS 150 mM NaCl
[5] = test system: S9.6 Fab HC_Y54D, PDB:7TQB_1+PDB:7TQB_2; test: fluorescence polarization; conditions: FP: 25 mM Tris-HCl pH 7.5, 50 mM NaCl, 2 mM MgCl2, 21 C, ~5 nM FAM duplex; ITC same buffer at 25 C; SEC-MALS 150 mM NaCl
[6] = test system: S9.6 Fab HC_Y32A, PDB:7TQB_1+PDB:7TQB_2; test: fluorescence polarization; conditions: FP: 25 mM Tris-HCl pH 7.5, 50 mM NaCl, 2 mM MgCl2, 21 C, ~5 nM FAM duplex; ITC same buffer at 25 C; SEC-MALS 150 mM NaCl
[7] = test system: S9.6 Fab HC_Y54R, PDB:7TQB_1+PDB:7TQB_2; test: fluorescence polarization; conditions: FP: 25 mM Tris-HCl pH 7.5, 50 mM NaCl, 2 mM MgCl2, 21 C, ~5 nM FAM duplex; ITC same buffer at 25 C; SEC-MALS 150 mM NaCl
[8] = test system: S9.6 Fab HC_S31A, PDB:7TQB_1+PDB:7TQB_2; test: fluorescence polarization; conditions: FP: 25 mM Tris-HCl pH 7.5, 50 mM NaCl, 2 mM MgCl2, 21 C, ~5 nM FAM duplex; ITC same buffer at 25 C; SEC-MALS 150 mM NaCl
[9] = test system: S9.6 Fab HC_Y54F, PDB:7TQB_1+PDB:7TQB_2; test: fluorescence polarization; conditions: FP: 25 mM Tris-HCl pH 7.5, 50 mM NaCl, 2 mM MgCl2, 21 C, ~5 nM FAM duplex; ITC same buffer at 25 C; SEC-MALS 150 mM NaCl
[10] = test system: S9.6 Fab HC_Y54A, PDB:7TQB_1+PDB:7TQB_2; test: fluorescence polarization; conditions: FP: 25 mM Tris-HCl pH 7.5, 50 mM NaCl, 2 mM MgCl2, 21 C, ~5 nM FAM duplex; ITC same buffer at 25 C; SEC-MALS 150 mM NaCl
[11] = test system: S9.6 Fab HC_Y54H, PDB:7TQB_1+PDB:7TQB_2; test: fluorescence polarization; conditions: FP: 25 mM Tris-HCl pH 7.5, 50 mM NaCl, 2 mM MgCl2, 21 C, ~5 nM FAM duplex; ITC same buffer at 25 C; SEC-MALS 150 mM NaCl
[12] = test system: S9.6 Fab HC_Y54W, PDB:7TQB_1+PDB:7TQB_2; test: fluorescence polarization; conditions: FP: 25 mM Tris-HCl pH 7.5, 50 mM NaCl, 2 mM MgCl2, 21 C, ~5 nM FAM duplex; ITC same buffer at 25 C; SEC-MALS 150 mM NaCl
[13] = test system: S9.6 Fab WT, PDB:7TQB_1+PDB:7TQB_2; test: ITC; conditions: 2 mM Mg2+, 25 C; FP: 25 mM Tris-HCl pH 7.5, 50 mM NaCl, 2 mM MgCl2, 21 C, ~5 nM FAM duplex; ITC same buffer at 25 C; SEC-MALS 150 mM NaCl
[14] = test system: S9.6 Fab WT, PDB:7TQB_1+PDB:7TQB_2; test: competition; conditions: FP: 25 mM Tris-HCl pH 7.5, 50 mM NaCl, 2 mM MgCl2, 21 C, ~5 nM FAM duplex; ITC same buffer at 25 C; SEC-MALS 150 mM NaCl
[15] = test system: S9.6 Fab HC_Y54G, PDB:7TQB_1+PDB:7TQB_2; test: fluorescence polarization; conditions: FP: 25 mM Tris-HCl pH 7.5, 50 mM NaCl, 2 mM MgCl2, 21 C, ~5 nM FAM duplex; ITC same buffer at 25 C; SEC-MALS 150 mM NaCl
[16] = test system: S9.6 Fab HC_Y101F, PDB:7TQB_1+PDB:7TQB_2; test: fluorescence polarization; conditions: FP: 25 mM Tris-HCl pH 7.5, 50 mM NaCl, 2 mM MgCl2, 21 C, ~5 nM FAM duplex; ITC same buffer at 25 C; SEC-MALS 150 mM NaCl
[17] = test system: S9.6 Fab HC_Y54M, PDB:7TQB_1+PDB:7TQB_2; test: fluorescence polarization; conditions: FP: 25 mM Tris-HCl pH 7.5, 50 mM NaCl, 2 mM MgCl2, 21 C, ~5 nM FAM duplex; ITC same buffer at 25 C; SEC-MALS 150 mM NaCl
[18] = test system: S9.6 Fab HC_Y54V, PDB:7TQB_1+PDB:7TQB_2; test: fluorescence polarization; conditions: FP: 25 mM Tris-HCl pH 7.5, 50 mM NaCl, 2 mM MgCl2, 21 C, ~5 nM FAM duplex; ITC same buffer at 25 C; SEC-MALS 150 mM NaCl
[19] = test system: S9.6 Fab HC_Y54L, PDB:7TQB_1+PDB:7TQB_2; test: fluorescence polarization; conditions: FP: 25 mM Tris-HCl pH 7.5, 50 mM NaCl, 2 mM MgCl2, 21 C, ~5 nM FAM duplex; ITC same buffer at 25 C; SEC-MALS 150 mM NaCl

CAGACAGACA / UGUCUGUCUG [10-bp hybrid 50% GC]
Kd [1]: 3110 nM

CAGACGGACA / UGUCCGUCUG [10-bp hybrid 60% GC]
Kd [1]: 610 nM

CGGACGGACA / UGUCCGUCCG [10-bp hybrid 70% GC]
Kd [1]: 420 nM

CGGACGGACG / CGUCCGUCCG [10-bp hybrid 80% GC]
Kd [1]: 570 nM

CGGCCGGACG / CGUCCGGCCG [10-bp hybrid 90% GC]
Kd [1]: 1020 nM

CGTGTCAGACAAG / CTTGTCUGACACG [13-bp dsDNA with 2'-OH at U7-G8-A9]
Kd ([2]; text: Kd > 7 uM, weakly bound, strand 2: ribonucleotides at positions 7-9, rest DNA): 7000 nM

CGTGTCAGACAAG / CTUGUCUGACACG
Kd ([2]; table fit 20.6 +/- 5.8 uM, RNA strand: deoxy at positions 2, 4, 6, 8, 10, 12 (12 inferred, name is cut in the material)): > 21000 nM

CGTGTCAGACAAG / CUTGUCUGACACG
Kd ([2]; RNA strand: deoxy at positions 3, 6, 9, 12): 380 nM

CGTGTCAGACAAG / CUUGUCUGACACG [13-bp DNA-RNA hybrid]
Kd [3]: 170 nM | Kd [4]: 730 nM | Kd [5]: 5160 nM | Kd [6]: 25400 nM | Kd [7]: 150 nM | Kd [8]: 140 nM | Kd ([1]; 2 mM Mg2+): 190 nM | Kd [9]: 400 nM | Kd [10]: 2650 nM | Kd [11]: 360 nM | Kd [12]: 760 nM | Kd [13]: 415 nM | IC50 [14]: 450 nM | binding signal (fold lower affinity than WT) [15]: 58 | binding signal (fold lower binding than WT) [16]: < 2 | Kd ([2]; 2 mM Mg2+): 232 nM

CGTGTCTGACAAG / CUUGUCAGACACG [13-bp hybrid rU7A:dA7T]
Kd [1]: 110 nM

CGTGUCAGACAAG / CUUGUCUGACACG [13-bp hybrid, 2'-OH (uridine) at dT5]
Kd ([1]; DNA strand: ribo-U at position 5): 140 nM

CGUGUCAGACAAG / CUUGUCUGACACG [13-bp hybrid, 2'-OH at dT3-dG4-dT5-dC6-dA7]
Kd ([1]; DNA strand: ribonucleotides at positions 3-7): 100 nM

CUUGUCUGACACG / CGUGUCAGACAAG [13-bp dsRNA]
Kd [4]: 1640 nM | Kd [7]: 1910 nM | Kd [17]: 4530 nM | Kd [18]: 1610 nM | Kd [9]: 8300 nM | Kd [10]: 2350 nM | Kd [11]: 4300 nM | Kd [19]: 3990 nM | Kd [12]: 11800 nM | IC50 [14]: 57000 nM | Kd ([2]; 2 mM Mg2+): 3790 nM
